We go through two substances from PMC7094341.

For assay [1], the target named is SARS-CoV papain-like protease (PLpro), trypsin-trimmed product of P-PLpro(C2)-His6 (SARS-CoV).
Assay [2] shares this target. The source holds these as a separate data set.

ISG15(C)-AMC, sequence (P05161 82-157): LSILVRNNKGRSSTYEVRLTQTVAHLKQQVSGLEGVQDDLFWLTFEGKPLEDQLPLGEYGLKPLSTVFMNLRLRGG

For “ISG15(C)-AMC (from UniProt P05161 82-157) (domain or fragment)”, the kcat/KM of hydrolysis of ISG15(C)-AMC by PLpro (fluorescence, pH 7.8, 25 °C) in assay [1] is 94000 M⁻¹ s⁻¹. As for Ub-7-amino-4-methylcoumarin, in assay [2], the kcat/KM of hydrolysis of Ub-AMC by PLpro (fluorescence, pH 7.8, 25 °C) was found to be 19800 M⁻¹ s⁻¹.
